Kd and binding signal data for two molecules are collected here from PMC10353856.

Data set [1] addresses PRC2 5-mer WT (EZH2-SUZ12-EED-RBBP4-AEBP2) (UniProt Q15910;Q15022;O75530;Q09028;Q6ZN18 1-746;1-739;1-441;1-425;1-517). The experiment in a line: EMSA. For orientation: In EMSA bound probe runs differently from free probe, usually more slowly.
Data set [2] deals with T1, PRC2 5-mer MT (RNA-binding mutant EZH2) (UniProt Q15910;Q15022;O75530;Q09028;Q6ZN18 1-746;1-739;1-441;1-425;1-517, F32A;R34A;D36A;K39A;P489N;R490A;K491A;K492I;K493R;R494S). The experiment in a line: EMSA.
Data set [3] addresses T1, PRC2 5-mer MT (RNA-binding mutant EZH2). Kind of data set: fluorescence anisotropy. On the technique in general: Polarisation of emitted light reports the rotation of a fluorescent probe.
The target of data set [4] is PRC2 4-mer MT (RNA-binding mutant EZH2) (UniProt Q15910;Q15022;O75530;Q09028 1-746;1-739;1-441;1-425, F32A;R34A;D36A;K39A;P489N;R490A;K491A;K492I;K493R;R494S). Kind of data set: fluorescence anisotropy.
Sequence of PRC2 4-mer MT (RNA-binding mutant EZH2) (Q15910 whole entry F32A/R34A/D36A/K39A/P489N/R490A/K491A/K492I/K493R/R494S, chain 1 of 4): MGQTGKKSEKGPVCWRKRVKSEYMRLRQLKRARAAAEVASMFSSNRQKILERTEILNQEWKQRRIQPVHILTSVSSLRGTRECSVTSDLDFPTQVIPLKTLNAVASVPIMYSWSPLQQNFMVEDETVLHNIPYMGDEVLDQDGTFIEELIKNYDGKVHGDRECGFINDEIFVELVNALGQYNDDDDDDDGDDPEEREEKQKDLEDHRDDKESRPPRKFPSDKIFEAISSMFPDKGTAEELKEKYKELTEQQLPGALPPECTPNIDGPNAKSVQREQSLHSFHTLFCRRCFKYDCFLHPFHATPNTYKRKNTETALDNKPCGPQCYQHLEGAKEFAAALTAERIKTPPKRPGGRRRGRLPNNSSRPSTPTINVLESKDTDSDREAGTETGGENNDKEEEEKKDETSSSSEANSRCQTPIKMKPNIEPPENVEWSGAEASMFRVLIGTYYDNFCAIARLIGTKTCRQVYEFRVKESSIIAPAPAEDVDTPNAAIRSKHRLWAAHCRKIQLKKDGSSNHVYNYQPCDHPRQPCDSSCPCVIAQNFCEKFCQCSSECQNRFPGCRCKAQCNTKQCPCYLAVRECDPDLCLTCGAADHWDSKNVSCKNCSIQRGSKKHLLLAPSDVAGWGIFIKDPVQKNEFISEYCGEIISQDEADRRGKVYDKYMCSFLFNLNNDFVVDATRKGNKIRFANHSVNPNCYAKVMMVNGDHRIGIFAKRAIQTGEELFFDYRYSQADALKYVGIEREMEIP
Sequence of PRC2 4-mer MT (RNA-binding mutant EZH2) (Q15022 whole entry, stated change not applied, chain 2 of 4): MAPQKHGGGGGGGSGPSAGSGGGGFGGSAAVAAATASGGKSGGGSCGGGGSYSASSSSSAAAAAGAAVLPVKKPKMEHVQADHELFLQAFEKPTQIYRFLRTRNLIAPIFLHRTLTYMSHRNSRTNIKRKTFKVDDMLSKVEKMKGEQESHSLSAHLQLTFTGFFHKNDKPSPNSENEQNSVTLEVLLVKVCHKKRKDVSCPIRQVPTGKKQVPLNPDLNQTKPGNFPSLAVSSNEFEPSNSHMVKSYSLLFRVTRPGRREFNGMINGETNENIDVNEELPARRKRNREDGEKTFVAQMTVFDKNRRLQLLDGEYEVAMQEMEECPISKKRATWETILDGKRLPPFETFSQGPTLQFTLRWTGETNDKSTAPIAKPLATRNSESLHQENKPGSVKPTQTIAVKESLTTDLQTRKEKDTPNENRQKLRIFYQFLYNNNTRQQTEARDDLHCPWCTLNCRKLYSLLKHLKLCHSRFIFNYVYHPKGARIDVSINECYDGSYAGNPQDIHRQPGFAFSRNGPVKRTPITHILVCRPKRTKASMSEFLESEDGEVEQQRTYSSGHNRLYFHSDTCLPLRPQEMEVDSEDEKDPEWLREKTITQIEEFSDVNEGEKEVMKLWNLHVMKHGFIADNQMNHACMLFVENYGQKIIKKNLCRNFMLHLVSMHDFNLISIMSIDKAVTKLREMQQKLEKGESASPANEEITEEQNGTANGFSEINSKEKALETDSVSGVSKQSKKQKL
Sequence of PRC2 4-mer MT (RNA-binding mutant EZH2) (O75530 whole entry, stated change not applied, chain 3 of 4): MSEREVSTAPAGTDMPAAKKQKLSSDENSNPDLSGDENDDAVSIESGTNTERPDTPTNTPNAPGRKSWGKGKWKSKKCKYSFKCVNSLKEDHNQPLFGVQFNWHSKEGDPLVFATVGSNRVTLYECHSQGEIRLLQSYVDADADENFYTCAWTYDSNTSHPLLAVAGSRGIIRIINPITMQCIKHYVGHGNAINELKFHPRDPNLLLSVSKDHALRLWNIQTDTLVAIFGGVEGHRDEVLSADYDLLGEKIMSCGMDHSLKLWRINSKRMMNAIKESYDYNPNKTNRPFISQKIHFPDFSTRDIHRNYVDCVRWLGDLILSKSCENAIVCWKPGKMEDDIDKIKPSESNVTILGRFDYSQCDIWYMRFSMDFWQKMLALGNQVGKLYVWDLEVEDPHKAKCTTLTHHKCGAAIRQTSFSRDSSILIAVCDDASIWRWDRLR
Sequence of PRC2 4-mer MT (RNA-binding mutant EZH2) (Q09028 whole entry, stated change not applied, chain 4 of 4): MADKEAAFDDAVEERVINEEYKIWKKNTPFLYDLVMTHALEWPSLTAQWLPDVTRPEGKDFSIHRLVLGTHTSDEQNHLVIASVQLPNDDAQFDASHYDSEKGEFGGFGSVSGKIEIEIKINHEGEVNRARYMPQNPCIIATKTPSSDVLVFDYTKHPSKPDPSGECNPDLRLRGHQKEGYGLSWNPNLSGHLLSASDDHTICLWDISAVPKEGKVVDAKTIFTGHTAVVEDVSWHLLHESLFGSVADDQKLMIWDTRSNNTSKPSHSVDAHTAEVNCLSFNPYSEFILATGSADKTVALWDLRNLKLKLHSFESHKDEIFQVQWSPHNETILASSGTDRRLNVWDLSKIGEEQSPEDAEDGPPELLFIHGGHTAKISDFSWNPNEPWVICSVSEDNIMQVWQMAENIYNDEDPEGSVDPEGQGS

Usually Kd stands for a measure of binding affinity in units of concentration. Higher therefore signals lower affinity. On to GGAAGGAAGGAAGGAAGGAAGGAAGGAAGGAAGGAAGGAA (structured_RNA) [(GGAA)10 G4 RNA 40-mer], for which the dissociation constant Kd is 2 nM in data set [1] and 12 nM in data set [2].
Consider GGAAGGAAGGAAGGAAGGAAGGAAGGAAGGAAGGAAGGAA (structured_RNA) [Alexa 488-(GGAA)10 RNA], for which the binding signal was 30 fold koff increase vs WT in data set [3] and 8 fold koff increase vs WT in data set [4].
